Test results from patent US20250381223A1.

Legend:
Her2-Fc [1] = experiment: flow cytometry of T cells with 0.5 µg 4D5.BBZ mRNA and 15 µg 4.1 mRNA; Her2-Fc + PE-anti-IgG-Fc; E1 without mRNA: 1.26
Her2-Fc [2] = experiment: flow cytometry of T cells with 0.5 µg 4D5.BBZ mRNA and 15 µg 4.2 mRNA; Her2-Fc + PE-anti-IgG-Fc; E1 without mRNA: 1.26
Her2-Fc [3] = experiment: flow cytometry of T cells with 0.5 µg 4D5.BBZ mRNA and 15 µg 4.3 mRNA; Her2-Fc + PE-anti-IgG-Fc; E1 without mRNA: 1.26
Her2-Fc [4] = experiment: flow cytometry of T cells with 0.5 µg 4D5.BBZ mRNA and 15 µg 4.4 mRNA; Her2-Fc + PE-anti-IgG-Fc; E1 without mRNA: 1.26
Her2-Fc [5] = experiment: flow cytometry of T cells with 0.5 µg 4D5.BBZ mRNA and 15 µg 4.5 mRNA; Her2-Fc + PE-anti-IgG-Fc; E1 without mRNA: 1.26
Her2-Fc [6] = experiment: flow cytometry of T cells with 0.5 µg 4D5.BBZ mRNA and 15 µg 4.6 mRNA; Her2-Fc + PE-anti-IgG-Fc; E1 without mRNA: 1.26
Her2-Fc [7] = experiment: flow cytometry of T cells with 0.5 µg 4D5.BBZ mRNA and 15 µg 4.7 mRNA; Her2-Fc + PE-anti-IgG-Fc; E1 without mRNA: 1.26
Her2-Fc [8] = experiment: flow cytometry of T cells with 0.5 µg 4D5.BBZ mRNA and 15 µg 4.8 mRNA; Her2-Fc + PE-anti-IgG-Fc; E1 without mRNA: 1.26
Her2-Fc [9] = experiment: flow cytometry of T cells with 0.5 µg 4D5.BBZ mRNA and 15 µg 8.6 mRNA; Her2-Fc + PE-anti-IgG-Fc; E1 without mRNA: 1.26
CD40-Fc (human) = CD40-Fc (human) (UniProt P25942); experiment: flow cytometry of T cells electroporated with 0.5 µg 4D5.BBZ mRNA alone; CD40-Fc + PE-anti-IgG-Fc; E1 without mRNA: 0.27
Her2-Fc [10] = experiment: flow cytometry of T cells electroporated with 0.5 µg 4D5.BBZ mRNA alone; Her2-Fc + PE-anti-IgG-Fc; E1 without mRNA: 1.26
Her2-Fc [11] = experiment: flow cytometry of T cells with 0.5 µg 4D5.BBZ mRNA and 5 µg A40C28 mRNA; Her2-Fc + PE-anti-IgG-Fc; E1 without mRNA: 1.26
Her2-Fc [12] = experiment: flow cytometry of T cells with 0.5 µg 4D5.BBZ mRNA and 15 µg 1412-4D11 mRNA; Her2-Fc + PE-anti-IgG-Fc; E1 without mRNA: 1.26

- % of cells in the positive gate (Her2-Fc [1]): 89.6
- % of cells in the positive gate (Her2-Fc [2]): 88.8
- % of cells in the positive gate (Her2-Fc [3]): 91.4
- % of cells in the positive gate (Her2-Fc [4]): 91.1
- % of cells in the positive gate (Her2-Fc [5]): 85.5
- % of cells in the positive gate (Her2-Fc [6]): 87.9
- % of cells in the positive gate (Her2-Fc [7]): 82.6
- % of cells in the positive gate (Her2-Fc [8]): 81.6
- % of cells in the positive gate (Her2-Fc [9]): 86.1
- % of cells in the positive gate (CD40-Fc (human)): 0.67
- % of cells in the positive gate (Her2-Fc [10]): 94.9
- % of cells in the positive gate (Her2-Fc [11]): 94.6
- % of cells in the positive gate (Her2-Fc [12]): 18.5
Substance: 4D5.BBZ (scFv)
